Test results from PMC11322631.
“And” between values parts separate entries of the source, which are not always exact repeats. Identical values can stand only once.

Columns and labels:
[1] = biological target: green-light absorbing proteorhodopsin A18L variant with uncleavable N-terminal signal peptide (marine γ-proteobacteria); test: cryo-EM structure; single particle cryo-EM of purified oligomers in 20 mM BTP-HCl pH 7.5, 150 mM NaCl, 0.25% Cymal-5; GPR-A18L at 4.2 mg/mL, PO at 4.0 mg/mL
[2] = biological target: green-light absorbing proteorhodopsin A18L variant with uncleavable N-terminal signal peptide (marine γ-proteobacteria); test: native gel or EMSA; BN-PAGE, NativePAGE 4-16% Bis-Tris gel, about 5 µg protein, 0.4% Cymal-5 and 0.25% Coomassie G-250 in the sample, run in ice water
[3] = biological target: proteoopsin, retinal-free N-terminally truncated green-light absorbing proteorhodopsin lacking the signal peptide (marine γ-proteobacteria); test: cryo-EM structure; single particle cryo-EM of purified oligomers in 20 mM BTP-HCl pH 7.5, 150 mM NaCl, 0.25% Cymal-5; GPR-A18L at 4.2 mg/mL, PO at 4.0 mg/mL

stoichiometry N [1] | stoichiometry N [2] | stoichiometry N [3] | Substance
5 and 6 | 5 and 6 |  | green-light absorbing proteorhodopsin A18L variant with uncleavable N-terminal signal peptide (natural protein)
 |  | 5 | proteoopsin, retinal-free N-terminally truncated green-light absorbing proteorhodopsin lacking the signal peptide (natural protein)
